We go through nine molecules from patent US20190233528A1 (published 2019).

T1: recombinant biotinylated human CD70 protein (human, UniProt P32970 39-193, biotinylated (site not stated))
T1 construct: also called recombinant biotinylated hCD70 protein
T1 sequence: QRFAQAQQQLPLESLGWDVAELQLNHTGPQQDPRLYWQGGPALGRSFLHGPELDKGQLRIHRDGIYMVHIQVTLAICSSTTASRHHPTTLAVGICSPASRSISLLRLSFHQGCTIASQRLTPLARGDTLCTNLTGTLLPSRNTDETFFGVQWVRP

T2: recombinant human CD70 (AviTag, polyhistidine tag and chicken tenascin trimerization domain fused to the … (chicken; human, UniProt P10039 110-139, limits assumed)
T2 construct: domain: trimerization domain; Expressed in Expi293, purified by IMAC and SEC; Copies 3 is inferred from the trimerization domain; not shown: AviTag; polyhistidine tag
T2 sequence: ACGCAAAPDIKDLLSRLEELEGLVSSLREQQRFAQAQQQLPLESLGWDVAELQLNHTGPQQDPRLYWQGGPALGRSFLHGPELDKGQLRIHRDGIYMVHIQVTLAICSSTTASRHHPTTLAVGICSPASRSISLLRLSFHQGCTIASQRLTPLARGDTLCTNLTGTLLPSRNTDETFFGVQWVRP

T3: human CD70 expressed on parental (WT) Jurkat cells (human, UniProt P32970 1-193)
T3 sequence: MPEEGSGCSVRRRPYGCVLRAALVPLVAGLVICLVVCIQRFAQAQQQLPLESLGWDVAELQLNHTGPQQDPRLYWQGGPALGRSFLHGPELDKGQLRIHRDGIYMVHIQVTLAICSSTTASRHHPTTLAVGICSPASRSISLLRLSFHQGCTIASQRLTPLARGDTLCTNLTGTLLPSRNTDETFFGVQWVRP

B1: P08F08 CD70-specific CAR (other)
chain: EVQLVQSGAEVKKPGESLKISCKGSGYGFTSYWIGWVRQMPGKGLEWMGIIHPDDSDTKYSPSFQGQVTISADKSISTAYLQWSSLKASDTAMYYCASSYLRGLWGGYFDYWGQGTLVTVSSGGGGSGGGGSGGGGSGGGGSELQSVLTQPPSASGTPGQRVTISCSGSSSNIGSNYVNWYQQLPGTAPKLLIYGDYQRPSGVPDRFSGSKSGTSASLAISGLRSEDEADYYCATRDDSLSGSVVFGTGTKLTVLTTTPAPRPPTPAPTIASQPLSLRPEACRPAAGGAVHTRGLDFACDIYIWAPLAGTCGVLLLSLVITLYCKRGRKKLLYIFKQPFMRPVQTTQEEDGCSCRFPEEEEGGCELRVKFSRSADAPAYQQGQNQLYNELNLGRREEYDVLDKRRGRDPEMGGKPRRKNPQEGLYNELQKDKMAEAYSEIGMKGERRRGKGHDGLYQGLSTATKDTYDALHMQALPPR
notes: Chimeric antigen receptor on transduced Jurkat cells; the signal peptide is left out
B2: P07D03 CD70-specific CAR (other)
chain: EVQLVQSGAEVKKPGESLKISCKGSGYRFTSYWIGWVRQMPGKGLEWMGSIYPDDSDTRYSPSFQGQVTISADKSISTAYLQWSSLKASDTAMYYCASSTVDYPGYSYFDYWGQGTLVTVSSGGGGSGGGGSGGGGSGGGGSELQSVLTQPPSASGTPGQRVTISCSGSRSNIGSNYVYWYQQLPGTAPKLLIYRNNQRPSGVPDRFSGSKSGTSASLAISGLRSEDEADYYCASWDGSLSAVVFGTGTKLTVLTTTPAPRPPTPAPTIASQPLSLRPEACRPAAGGAVHTRGLDFACDIYIWAPLAGTCGVLLLSLVITLYCKRGRKKLLYIFKQPFMRPVQTTQEEDGCSCRFPEEEEGGCELRVKFSRSADAPAYQQGQNQLYNELNLGRREEYDVLDKRRGRDPEMGGKPRRKNPQEGLYNELQKDKMAEAYSEIGMKGERRRGKGHDGLYQGLSTATKDTYDALHMQALPPR
notes: as for B1
B3: P02B10 CD70-specific CAR (other)
chain: EVQLLESGGGLVQPGGSLRLSCAASGFAFSNYAMSWVRQAPGKGLEWVSAIRGGGGSTYYADSVKGRFTISRDNSKNTLYLQMNSLRAEDTAVYYCARDFISGTWYPDYWGQGTLVTVSSGGGGSGGGGSGGGGSGGGGSELQSVLTQPPSASGTPGQRVTISCSGSSSNIGSNYVYWYQQLPGTAPKLLIYRNNQRPSGVPDRFSGSKSGTSASLAISGLRSEDEADYYCAAWDDSLSGVVFGGGTKLTVLTTTPAPRPPTPAPTIASQPLSLRPEACRPAAGGAVHTRGLDFACDIYIWAPLAGTCGVLLLSLVITLYCKRGRKKLLYIFKQPFMRPVQTTQEEDGCSCRFPEEEEGGCELRVKFSRSADAPAYQQGQNQLYNELNLGRREEYDVLDKRRGRDPEMGGKPRRKNPQEGLYNELQKDKMAEAYSEIGMKGERRRGKGHDGLYQGLSTATKDTYDALHMQALPPR
notes: as for B1
B4: P08E02 CD70-specific CAR (other)
chain: EVQLVQSGAEVKKPGESLKISCKGSGYSFTSSWIGWVRQMPGKGLEWMGIIYPGDSDTRYSPSFQGQVTISADKSISTAYLQWSSLKASDTAMYYCAKGLSQAMTGFGFDYWGQGTLVTVSSGGGGSGGGGSGGGGSGGGGSELDIQMTQSPSSLSASVGDRVTITCRASQSISRYLNWYQQKPGKAPKLLIYAASILQTGVPSRFSGSGSGTDFTLTISSLQPEDFATYYCQQSYSTTMWTFGQGTKVEIKTTTPAPRPPTPAPTIASQPLSLRPEACRPAAGGAVHTRGLDFACDIYIWAPLAGTCGVLLLSLVITLYCKRGRKKLLYIFKQPFMRPVQTTQEEDGCSCRFPEEEEGGCELRVKFSRSADAPAYQQGQNQLYNELNLGRREEYDVLDKRRGRDPEMGGKPRRKNPQEGLYNELQKDKMAEAYSEIGMKGERRRGKGHDGLYQGLSTATKDTYDALHMQALPPR
notes: as for B1
B5: P08A02 CD70-specific CAR (other)
chain: EVQLVQSGAEVKKPGESLKISCKGSGYTFTNYWIAWVRQMPGKGLEWMGIIYPDGSDTRYSPSFQGQVTISADKSISTAYLQWSSLKASDTAMYYCARDITSWYYGEPAFDIWGQGTLVTVSSGGGGSGGGGSGGGGSGGGGSELQSVLTQPPSASGTPGQRVTISCSGSSSNIGSNYVYWYQQLPGTAPKLLIYRNNQRPSGVPDRFSGSKSGTSASLAISGLRSEDEADYYCATWDDSLGSPVFGTGTKLTVLTTTPAPRPPTPAPTIASQPLSLRPEACRPAAGGAVHTRGLDFACDIYIWAPLAGTCGVLLLSLVITLYCKRGRKKLLYIFKQPFMRPVQTTQEEDGCSCRFPEEEEGGCELRVKFSRSADAPAYQQGQNQLYNELNLGRREEYDVLDKRRGRDPEMGGKPRRKNPQEGLYNELQKDKMAEAYSEIGMKGERRRGKGHDGLYQGLSTATKDTYDALHMQALPPR
notes: as for B1
B6: P08G02 CD70-specific CAR (other)
chain: EVQLVQSGAEVKKPGESLKISCKGSGYTFPSSWIGWVRQMPGKGLEWMGIIYPDTSHTRYSPSFQGQVTISADKSISTAYLQWSSLKASDTAMYYCARASYFDRGTGYSSWWMDVWGQGTLVTVSSGGGGSGGGGSGGGGSGGGGSELDIQMTQSPSSLSASVGDRVTITCRASQSIYDYLHWYQQKPGKAPKLLIYDASNLQSGVPSRFSGSGSGTDFTLTISSLQPEDFATYYCQQSYTTPLFTFGQGTKVEIKTTTPAPRPPTPAPTIASQPLSLRPEACRPAAGGAVHTRGLDFACDIYIWAPLAGTCGVLLLSLVITLYCKRGRKKLLYIFKQPFMRPVQTTQEEDGCSCRFPEEEEGGCELRVKFSRSADAPAYQQGQNQLYNELNLGRREEYDVLDKRRGRDPEMGGKPRRKNPQEGLYNELQKDKMAEAYSEIGMKGERRRGKGHDGLYQGLSTATKDTYDALHMQALPPR
notes: as for B1
B7: P13F04 anti-CD70 scFv-Fc fusion (Fc fusion)
chain: QVQLVQSGAEVKKPGSSVKVSCKASGGTFSSYAISWVRQAPGQGLEWMGEIIPIFGTASYAQKFQGRVTITADESTSTAYMELSSLRSEDTAVYYCARAGWDDSWFDYWGQGTLVTVSSGGGGSGGGGSGGGGSGGGGSELQSVLTQPPSASGTPGQRVTISCSGSNSNIGTNYVSWYQQLPGTAPKLLIYRSSRRPSGVPDRFSGSKSGTSASLAISGLRSEDEADYYCAAWDGSLSGHWVFGTGTKLTVL
notes: scFv-Fc expressed in Expi293; not shown: part of the hinge and Fc from a modified human IgG2
B8: P12B09 anti-CD70 scFv-Fc fusion (Fc fusion)
chain: EVQLLESGGGLVQPGGSLRLSCAASGFTFSQYSMSWVRQAPGKGLEWVSAISGGGVSTYYADSVKGRFTISRDNSKNTLYLQMNSLRAEDTAVYYCASDISDSGGSHWYFDYWGQGTLVTVSSGGGGSGGGGSGGGGSGGGGSELDIQMTQSPSSLSASVGDRVTITCRASQYIGRYLNWYQQKRGKAPKLLIHGATSLASGVPSRFSGSGSGTDFTLTISSLQPEDFATYYCQQSYSTTSPTFGQGTKVEIK
notes: as for B7
B9: P12F02 anti-CD70 scFv-Fc fusion (Fc fusion)
chain: EVQLLESGGGLVQPGGSLRLSCAASGFTFSSYAMSWVRQAPGKGLEWVSTISGTGGTTYYADSVKGRFTISRDNSKNTLYLQMNSLRAEDTAVYYCAKVRAGIDPTASDVWGQGTLVTVSSGGGGSGGGGSGGGGSGGGGSELQSVLTQPPSASGTPGQRVTISCSGSTSNIGRNYVYWYQQLPGTAPKLLIYRTNQRPSGVPDRFSGSKSGTSASLAISGLRSEDEADYYCAAWDDSLSGRVFGTGTKLTVL
notes: as for B7

One assay addresses T1, recombinant biotinylated human CD70 …. The assay is described as follows: flow cytometry: CAR-transduced Jurkat cells incubated with recombinant biotinylated human CD70, streptavidin-PE; percent of cells binding. As to the method: On Day 5, transduced cells were stained with human anti-CD69 antibody conjugated to PE-Cy7 and acquired on a flow cytometer to obtain percentage of CD69+ population for each CAR. […] Activation ratios (WT activation/KO activation) and protein binding were used to rank CARs.
Table 7: Activation ratio and protein binding of phage CARs were determined in the Jurkat screen. Activation ratio was used for in vitro characterization of CARs. Activation ratio was determined by calculating the ratio of the percentage of CD69 expression on WT Jurkat cells transduced with CD70 CAR (WT) to that on CD70 knockout Jurkat cells transduced with CD70 CAR (KO). A higher activation ratio indicates target-dependent activation. […] Protein binding values indicate the percentage of CD3+ CAR T cells that bind to human CD70 protein.
Consider B1, for which the “Protein binding (%)” value came out at 35.9%.
Same read-out and setting: in the case of B2 it was 0.68%.
Same read-out and setting: in the case of B3 it was 77.9%; in that of B4, 57.1%; in that of B5, 20.7%.
For B6, the “Protein binding (%)” value was found to be 77.8%.

The target of another assay is T2, recombinant human CD70 (AviTag, …). The assay is described as follows: SPR (Biacore 8K, 37 C): CD70 captured via anti-AviTag antibody on C1 chip, scFv-Fc as analyte; 1:1 Langmuir fit. As for the experimental part:
The antibody binding kinetics were determined by surface plasmon resonance (Biacore 8K, GE Healthcare Bio-Sciences, Pittsburgh Pa.) at 37° C. in HBS-T+ (0.01 M HEPES pH 7.4, 0.15 M NaCl, 0.05% v/v Tween20, 1 mg/mL BSA). Recombinant human CD70 diluted in HBS-T+ was captured on a C1 chip immobilized with an anti-AviTag™ antibody. Purified anti-CD70 scFv-Fc fusions were serially diluted into HBS-T+, injected at 30 uL/min for 2-4 min, dissociation monitored for 10 min then the surface regenerated with 75 mM phosphoric acid between injections. Buffer cycles were collected for each anti-CD70 scFv-Fc fusion for double-referencing purposes (double-referencing as described in Myszka, D. G. Improving biosensor analysis. J. Mol. Recognit. 12, 279-284 (1999)). Kinetic association rates (kₒₙ) and dissociation rates (koff) were obtained simultaneously by fitting the double-referenced sensorgrams globally to a 1:1 Langmuir with mass transport model using Biacore 8K Evaluation Software (GE Healthcare Bio-Sciences, Pittsburgh Pa.) then used to calculate an equilibrium dissociation constant (KD) from the kinetic rate constants (KD=koff/kₒₙ). The data was fit to a 1:1 steady state affinity model using Biacore 8K Evaluation Software to determine a steady state equilibrium dissociation constant (SS KD) as needed.
Regarding B7, the Kd amounted to 205 nM, the koff amounted to 0.02 s⁻¹, the kon was determined as 97700 M⁻¹ s⁻¹ and the “t1/2” value stood at 0.6 min.
In the same order, the values of B8 are 4.1 nM, 0.00135 s⁻¹, 330000 M⁻¹ s⁻¹ and 8.6 min.
For B9, the Kd is 5.7 nM, the koff amounted to 0.00155 s⁻¹, the kon was 275000 M⁻¹ s⁻¹ and the “t1/2” value was determined as 7.4 min.

The target in a further assay is T3, human CD70 expressed on parental (WT) …. The assay is described as follows: cell-based or functional assay.
With B1, the “Activation ratio (WT/KO)” value was 3.42.
As for B2, the “Activation ratio (WT/KO)” value was 3.04.
Consider B3, for which the “Activation ratio (WT/KO)” value worked out at 2.81.
As to B4, the “Activation ratio (WT/KO)” value was 3.29.
Same read-out and setting: as for B5, the figure is 14.4; as for B6, 2.11.
